Where “and” joins values, the source holds several entries; their conditions need not be identical. Equal entries are not always repeated.
Legend:
[1] = target: Notch1 of HPB-ALL cells (human, UniProt P46531 19-2555); experiment: cell-based or functional assay
[2] = target: T1, human Notch1-NRRHD (human, UniProt P46531 19-43; P46531 1446-1733); experiment: ELISA on coated conditioned medium
T1 construct: domain: Notch1-NRRHD (nucleotide 1-129);domain: Notch1-NRRHD (nucleotide 4338-5202); If counted from the start codon they are about residues 1-43 and 1447-1734 (my conversion); Used as conditioned medium; also called huN1-NRRHD; human Notch1 antigen
T1 sequence (looked up): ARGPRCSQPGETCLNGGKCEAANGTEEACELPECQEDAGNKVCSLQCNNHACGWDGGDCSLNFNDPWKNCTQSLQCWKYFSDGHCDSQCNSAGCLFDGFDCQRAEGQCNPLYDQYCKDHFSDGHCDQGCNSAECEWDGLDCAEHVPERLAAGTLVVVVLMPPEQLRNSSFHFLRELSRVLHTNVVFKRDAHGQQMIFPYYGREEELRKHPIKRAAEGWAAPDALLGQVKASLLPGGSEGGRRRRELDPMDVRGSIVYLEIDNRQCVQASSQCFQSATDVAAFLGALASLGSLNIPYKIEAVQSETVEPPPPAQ
Source text: (§1) We further made domain-swap chimeric Notch1-NRRHD expression constructs using the human Notch1-NRRHD sequence (Nucleotide 1-129 and 4338-5202, NCBI Accession # NM_{—}017617) as frame work, systematically exchanged the human Lin-A, Lin-B or HD-C domains with the corresponding mouse domains.

[3] = target: T2, murine Notch1-NRRHD (mouse, UniProt Q01705 19-33; Q01705 1443-1723); experiment: ELISA on coated conditioned medium
T2 construct: domain: Notch1-NRRHD (nucleotide 1-99);domain: Notch1-NRRHD (nucleotide 4327 to 5169); Nucleotide limits only; if counted from the start codon they are residues 1-33 and 1443-1723 (my conversion); Used as conditioned medium; also called MuN1-NRRHD; mouse Notch1
T2 sequence (looked up): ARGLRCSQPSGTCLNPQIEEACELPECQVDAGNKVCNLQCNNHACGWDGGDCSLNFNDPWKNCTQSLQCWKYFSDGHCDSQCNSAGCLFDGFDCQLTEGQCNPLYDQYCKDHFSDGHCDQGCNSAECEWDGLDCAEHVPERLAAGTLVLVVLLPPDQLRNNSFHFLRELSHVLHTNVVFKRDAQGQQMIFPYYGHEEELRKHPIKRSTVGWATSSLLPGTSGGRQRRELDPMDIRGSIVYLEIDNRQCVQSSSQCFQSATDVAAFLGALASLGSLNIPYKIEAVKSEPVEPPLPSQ
Source text: as §1

[4] = target: T3, Notch1 chimeric antigen, Lin-B domain swapped with murine sequence; experiment: ELISA on coated conditioned medium
T3 construct: also called Mu/Lin-B
Source text: as §1

[5] = target: T4, Notch1 chimeric antigen, HD-C domain swapped with murine sequence; experiment: ELISA on coated conditioned medium
T4 construct: also called Mu/HD-C
Source text: as §1

[6] = target: T5, N1-NRR-TM(-)/Fc fusion protein (human); experiment: SPR, Biacore 3000, N1-NRR-TM(-)Fc captured on Protein A, mAb injected
T5 construct: Secreted from 293-F cells, purified on protein G; also called Notch1-NRR-TM(-)/Fc; N1-NRR-TM(-)Fc protein; not shown: Human Fc of the Fc-fusion vector, fused C-terminal of the immunogen, plus any junction residues
T5 chain: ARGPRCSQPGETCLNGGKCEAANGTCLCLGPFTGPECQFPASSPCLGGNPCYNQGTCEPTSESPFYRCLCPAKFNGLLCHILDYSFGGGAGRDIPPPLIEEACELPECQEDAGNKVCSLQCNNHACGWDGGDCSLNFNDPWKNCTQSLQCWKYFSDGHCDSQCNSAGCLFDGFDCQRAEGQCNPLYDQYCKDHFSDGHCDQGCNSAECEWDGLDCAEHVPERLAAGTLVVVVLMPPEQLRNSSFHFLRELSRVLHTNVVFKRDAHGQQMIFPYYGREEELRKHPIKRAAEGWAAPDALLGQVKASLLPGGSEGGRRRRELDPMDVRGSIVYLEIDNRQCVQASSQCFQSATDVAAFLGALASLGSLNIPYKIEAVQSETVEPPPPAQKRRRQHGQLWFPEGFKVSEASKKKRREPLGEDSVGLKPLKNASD
Protocol: Protein A was amine-coupled at saturating levels onto the chip using a standard N-hydroxysuccinimide/ethyldimethylaminopropyl carbodiimide (NHS/EDC) chemistry. N1-NRR-TM(−)Fc protein (described in Example 1) was captured to the chip surface by Protein A in all three flow cells at 40, 13, 4 ug/ml. […] Dissociation was monitored for 20 minutes. The chip was regenerated after the last injection of each titration with two 30 second pulses of 100 mM phosphoric acid. Buffer cycles provided blanks for double-referencing the data, which were then fit globally to a simple binding model using Biaevaluation software v.4.1. Affinities were deduced from the quotient of the kinetic rate constants (KD=koff/kₒₙ).

[7] = target: T6, Notch1 chimeric antigen, Lin-A domain swapped with corresponding Notch2 domain; experiment: ELISA, conditioned medium of chimeric antigen coated, 300 ng mAb per well
T6 construct: Used as conditioned medium of transfected 293-F cells
Protocol: (§2) For understanding the mechanism of action by Notch1-antagonist mAb, binding epitopes of Notch1-antagonist mAbs were analyzed by domain swap and ELISA binding assay. The Notch1-NRR-TM(−)/Fc protein was divided into six domains: EGF (including EGF35-36), Lin12-A (or Lin-A), Lin-B, Lin-C, heterodimerization domain-N (or HD-N) and HD-C (FIG. 5). Each of the domains were swapped for that corresponding to human Notch2 by PCR synthesis in a series of chimeric Notch1-NRR-TM(−)/Fc expression constructs. The domain-swap plasmids were transfected in Freestyle™ 293-F cells (Invitrogen, Inc., Calsbad, Calif.) using Freestyle™ Max Reagent (Invitrogen) as described above in Example 1. After being cultured for three days, the conditioned media was subjected to Western blot analysis and an ELISA binding assay by Notch1 mAbs.
(§3) In ELISA assay, the 100 microliters of the conditioned medium from the above antigen plasmids-transfected cell culture were loaded in each well of the 96-well plate, and plates were incubated at room temperature for 4 hours or 4° C. for overnight. The condition medium was then removed from the coated plates. For primary antibody binding, 300 ng of each mAb (Table 3) in 100 microliters of PBS was added to the coated well. The rest of the ELISA procedure is the same as described in Example 2.

[8] = target: T7, Notch1 chimeric antigen, Lin-C domain swapped with corresponding Notch2 domain; experiment: as above
T7 construct: Used as conditioned medium of transfected 293-F cells
Protocol: as §2, §3

[9] = target: T8, Notch1 chimeric antigen, HD-N domain swapped with corresponding Notch2 domain; experiment: as above
T8 construct: Used as conditioned medium of transfected 293-F cells
Protocol: as §2, §3

[10] = target: T9, Notch1 chimeric antigen, HD-C domain swapped with corresponding Notch2 domain; experiment: as above
T9 construct: Used as conditioned medium of transfected 293-F cells
Protocol: as §2, §3

[11] = target: T10, Notch1 chimeric antigen, EGF domain swapped with corresponding Notch2 domain; experiment: as above
T10 construct: Used as conditioned medium of transfected 293-F cells
Protocol: as §2, §3

[12] = target: T2, murine Notch1-NRRHD; experiment: heading printed under Table 3; it introduces the following ELISA experiment with human and murine Notch1-NRRHD
Source text: as §1

- IC50 of cell growth inhibition, HPB-ALL cells, 7 days [1]: ~0.78 µg/ml and ~5.2 nM
- ELISA reading [2]: 3.13
- ELISA reading [3]: 0.17
- ELISA reading [4]: 3.37
- ELISA reading [5]: 3.17
- Kd [6]: < 0.33 nM
- koff [6]: < 0.00017 s⁻¹
- ELISA reading [7]: 0.05
- ELISA reading [8]: 3.48
- ELISA reading [9]: 3.52
- ELISA reading [10]: 0.04
- ELISA reading [11]: 3.51
- binding result [12]: no binding
B1: mouse monoclonal antibody N248A (antibody, IgG1, V domains shown)
VH: QVQLQQSGAELMKPGASVKISCKATGYTFSNYWMEWVKQRPGHGLEWIGEILPGRGRTNYNENFKGKATFTADTSSNTVYMQLNSLTSEDSAVYYCARFHSSAYYYTMDYWGQRTSVTVSS
VL: QAVVTQESALTTSPGETVTLTCRSSTGAVTTSNYANWVQEKPDHLFTGLIGGTNNRAPGIPARFSGSLIGDKAALTITGAQTEDEAIYFCALWYSNHWVFGGGTKLTVL
notes: treated as one antibody; also called mAb N248A; N248A1

Reference: patent US20120093813A1 (Pfizer, published 2012)
